Source: patent US20140212976

System: T1, bifurcating NADP Fe-only hydrogenase of C. autoethanogenum
T1 sequence: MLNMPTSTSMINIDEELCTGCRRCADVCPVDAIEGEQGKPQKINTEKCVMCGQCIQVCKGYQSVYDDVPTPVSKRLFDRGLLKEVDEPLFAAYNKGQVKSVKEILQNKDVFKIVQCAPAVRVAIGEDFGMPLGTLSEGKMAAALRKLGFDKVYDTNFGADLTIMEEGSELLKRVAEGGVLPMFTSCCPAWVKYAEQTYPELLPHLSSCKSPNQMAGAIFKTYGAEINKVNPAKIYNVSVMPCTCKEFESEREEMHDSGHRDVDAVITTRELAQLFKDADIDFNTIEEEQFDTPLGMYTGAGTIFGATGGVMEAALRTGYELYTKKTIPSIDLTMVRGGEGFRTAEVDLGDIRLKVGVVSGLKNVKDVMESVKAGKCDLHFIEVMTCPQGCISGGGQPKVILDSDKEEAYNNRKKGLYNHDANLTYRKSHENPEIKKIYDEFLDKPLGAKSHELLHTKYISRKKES

bifurcating NADP formate dehydrogenase of C. autoethanogenum
Formate-hydrogen lyase activity (using H2): a high activity of 2.4 U/mg was detected
